Values quoted from earlier work, collected in article PMC6116012.

Experiments:
PAF15 (Homo sapiens) = PAF15 (Homo sapiens) (UniProt Q15004)
[1] = biological target: PAF15 extended PIP-box peptide PIP-box (Homo sapiens) (UniProt Q15004)
FEN1 (Homo sapiens) = FEN1 (Homo sapiens) (UniProt P39748)
UniProt P39748, sequence (P39748 whole entry): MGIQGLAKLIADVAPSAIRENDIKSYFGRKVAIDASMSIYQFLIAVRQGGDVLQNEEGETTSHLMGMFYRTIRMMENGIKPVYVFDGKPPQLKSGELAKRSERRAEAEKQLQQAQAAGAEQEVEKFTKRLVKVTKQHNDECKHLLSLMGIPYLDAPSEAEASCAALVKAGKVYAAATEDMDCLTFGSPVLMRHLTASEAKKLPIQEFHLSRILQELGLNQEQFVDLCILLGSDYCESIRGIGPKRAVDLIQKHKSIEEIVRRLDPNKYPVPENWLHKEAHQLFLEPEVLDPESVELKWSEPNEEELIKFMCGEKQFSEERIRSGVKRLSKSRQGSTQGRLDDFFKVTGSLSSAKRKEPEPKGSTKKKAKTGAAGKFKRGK

- Kd (PAF15 (Homo sapiens)): 1.1 µM
- Kd [1]: 5.6 µM
- Kd (FEN1 (Homo sapiens)): 0.06 µM
Substance: PCNA (from UniProt P12004)
